This passage reports IC50 results from publication PMC11241375, “In Silico Screening of Bioactive Peptides in Stout Beer and Analysis of ACE Inhibitory Activity” (Foods, 2024).

For assay [1], the target named is T1, ACE (Homo sapiens, UniProt P12821).
T1 construct: purchased Sigma-Aldrich
Particulars: cited from earlier work. The source says: Recently, several ACEI peptides have been identified and evaluated in brewed wine. Wu et al. discovered a polypeptide in Chinese Baijiu for the first time, which indicated an ACE inhibitory effect with an IC50 of […] [11]. […] Beer is one of the most globally cons ... || In this study, peptides in stout beer were identified using UPLC-Q-Orbitrap-MS^2, and a total of 41 peptides with ALC ≥ 85% were selected (Table 1). The peptides PMAPLPRSGPE and […] from Italian beer, LPQQQAQFK, STEWHLD, PPPVHD, LVLPGELAK, LAVMQQQQQQ, PPPVHDTD, PPVPHDTD, LPEDAKVE, HAVSEGTKAVT, LPGELAK, PMAPLPRSGEP, TVSGF, LNFDPNR, LALDTRVG, LDTRVGV, and RVALVY from draft beer, which were previously identified, also appeared in our results. The polypeptides present in beer primarily originate from malt protein. Previous studies have shown that the soluble protein content in m ...

Assay [2] addresses T1, ACE. Kind of assay: ACEI activity in vitro (ACE activity assay kit). Particulars: 10 μL ACE + 40 μL inhibitor + 50 μL substrate, fluorescence ex 320 nm/em 405 nm, 37 °C, 30 min, synthesized peptide, triplicate, mean ± SD. It is filed as biochemical. Here is the method: ACEI activity determination was determined using an assay kit. Briefly, 10 μL of ACE and 40 μL of the inhibitor were added to the microplate and mixed thoroughly, then 50 μL of the substrate was added to start the reaction. The fluorescence was detected at an excitation wavelength of 320 nm and an emission wavelength of 405 nm at 37 °C for 30 min. The ACE activity of the peptide was calculated as follows:ACEI activity = [(KStd − KSample)/KStd] × DF × 100% where KSample means the slope of the sample curve after subtracting the blank. (RFU/min); KStd means the slope of the standard curve after subtracting the blank (RFU/min); DF means the dilution factor.
Each experiment was conducted in triplicate, the data were presented as mean ± standard deviation. SYBYL-X 2.1.1 software was utilized for evaluating the molecular docking visualization. LigPlot 1.4.5 software was employed to illustrate the 2D interactions. MD simulation data analysis was performed using GROMACS 2022.3 software.

The mark [3] stands for this setting: peptides identified from Qingke Baijiu.
Where [4] appears, read: known ACEI peptides in BIOPEP/AHTPDB.

Where two headings read alike, the source gives them in different places. No end group written: not given here.

T1 sequence (P12821 30-1306, species assumed): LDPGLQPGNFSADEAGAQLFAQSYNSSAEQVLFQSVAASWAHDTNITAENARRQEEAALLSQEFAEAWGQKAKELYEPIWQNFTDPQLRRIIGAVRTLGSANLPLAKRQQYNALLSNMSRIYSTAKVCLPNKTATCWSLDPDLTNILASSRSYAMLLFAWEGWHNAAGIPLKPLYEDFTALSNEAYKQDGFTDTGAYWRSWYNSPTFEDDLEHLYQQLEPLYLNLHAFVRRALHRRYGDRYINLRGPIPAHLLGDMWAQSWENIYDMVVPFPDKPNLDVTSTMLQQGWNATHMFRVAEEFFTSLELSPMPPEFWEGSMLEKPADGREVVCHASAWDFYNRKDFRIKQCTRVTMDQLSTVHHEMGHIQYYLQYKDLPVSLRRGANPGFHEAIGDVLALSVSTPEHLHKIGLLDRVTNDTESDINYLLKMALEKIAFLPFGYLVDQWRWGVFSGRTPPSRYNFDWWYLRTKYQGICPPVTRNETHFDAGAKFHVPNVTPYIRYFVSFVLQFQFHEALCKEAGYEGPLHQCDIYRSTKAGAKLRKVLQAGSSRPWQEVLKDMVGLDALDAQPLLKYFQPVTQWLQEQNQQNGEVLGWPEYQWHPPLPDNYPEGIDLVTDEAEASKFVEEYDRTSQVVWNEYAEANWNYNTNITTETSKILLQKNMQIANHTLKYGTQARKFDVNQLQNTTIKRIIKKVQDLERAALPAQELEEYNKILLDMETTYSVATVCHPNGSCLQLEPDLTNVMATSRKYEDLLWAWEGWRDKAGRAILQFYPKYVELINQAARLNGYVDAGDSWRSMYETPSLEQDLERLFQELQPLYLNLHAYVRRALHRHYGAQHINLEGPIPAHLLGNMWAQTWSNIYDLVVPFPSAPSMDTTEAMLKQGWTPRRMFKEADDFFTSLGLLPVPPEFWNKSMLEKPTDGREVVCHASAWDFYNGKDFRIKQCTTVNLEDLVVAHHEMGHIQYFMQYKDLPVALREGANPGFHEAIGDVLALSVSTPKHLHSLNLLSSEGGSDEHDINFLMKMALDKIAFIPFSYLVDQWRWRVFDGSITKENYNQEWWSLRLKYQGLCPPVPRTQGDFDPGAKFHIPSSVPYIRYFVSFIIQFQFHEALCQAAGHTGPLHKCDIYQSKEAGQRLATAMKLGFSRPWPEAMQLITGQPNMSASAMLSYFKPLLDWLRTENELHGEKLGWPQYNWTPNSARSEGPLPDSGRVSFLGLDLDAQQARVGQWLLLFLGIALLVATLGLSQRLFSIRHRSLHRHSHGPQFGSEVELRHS

What is called IC50 is the concentration that inhibits the measured activity by half. Regarding “FPLQPHQP [peptide from Qingke Baijiu, reference compound]”, the IC50 with ACE [1] (setting [3]) was 5.03 µM.
On to “LPVGP [peptide from Qingke Baijiu, reference compound]”, for which the IC50 with ACE [1] (setting [3]) is 9.05 µM.
Consider “LPQQQAQFK [peptide of stout beer; already known ACEI peptide]”, for which the IC50 with ACE [1] (setting [4]) was 26.4 µM.
For DLGGFFGFQR [DLGGFFGFQR], the IC50 at ACE [2] is 24.5 µM.
For the substance “LNFDPNR [peptide of stout beer; already known ACEI peptide]”, the IC50 with ACE [1] (setting [4]) was 38.6 µM.
